Assay results reported in patent US20130058921A1 (published 2013).

Molecular target: CS1 (human, UniProt Q9NQ25 23-335)
Assay: cell-based or functional assay

B1: elotuzumab (antibody, V domains shown)
VH: EVQLVESGGGLVQPGGSLRLSCAASGFDFSRYWMSWVRQAPGKGLEWIGEINPDSSTINYAPSLKDKFIISRDNAKNSLYLQMNSLRAEDTAVYYCARPDGNYWYFDVWGQGTLVTVSS
VL: DIQMTQSPSSLSASVGDRVTITCKASQDVGIAVAWYQQKPGKVPKLLIYWASTRHTGVPDRFSGSGSGTDFTLTISSLQPEDVATYYCQQYSSYPYTFGQGTKVEIK
expanded autologous NK cell-mediated killing of multiple myeloma cells (51Cr release assay): ≥ 1.7 fold
